Laboratory results: article PMC11027413

Target: RNA polymerase II (RNAPII) (human (endogenous in HepG2)) (UniProt P24928)
Test: co-sedimentation; HepG2 cell lysate on a 10-40% glycerol gradient in NP-40 lysis buffer (50 mM HEPES pH 7.5, 100 mM NaCl), 50,000 rpm for 11 h at 4°C; fractions detected by Western blotting

“RBM22 (endogenous) (from UniProt Q9NW64 1-420) (natural protein)” showed a percent of RBM22 linked with RNAPII of 40%.
